The domain aggregation screens of Martell et al. (2025)

Experiment: soluble fraction after stress (log2 fold change); higher = more stays soluble; pooled small domains, quantitative proteomics
Conditions: stress: pH 4
In short: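 Aggregation propensity is estimated from the fold change in each domain's soluble amount after acid stress. Pooled small-domain libraries were stressed at pH 4, and higher log2 values mean more stayed soluble.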

Sequence	soluble fraction (log2)
HMPGVLEVDTGGVAAVAYVDGVEVGRVPGELQIAAGTKTLMLKADRYLDYVQSLEIDGLGKRQLLVATLQS	-0.831
HMPGVTTQLHRLNGTEETYIIKRGDGVLEIDGEKSELQLGDAIIIPAGASQKISNIGDEDLE	-0.229
HMPHFFISTSDVNQDIITVSDKENFHHIARVLRSKVGETLLLVDENRTQYKVVIQNIDSKSITTKVVETLK	-0.697
HMPHFGVVLQMDDWKTLRDRLEARDDIDWVMKPNLRFEGQPGEQATLFIRDPSGNALEFKGFADLSQVF	-1.64
HMPHSTTDFSVSPDERQIVYSTNLQGRYDLWALDHNQGYPYPLTKKGQMSFFIKHLPGSQMILTGFD	0.0618
HMPIDQAKRKKEIIQNFGIRKIYKFSEIFDLKFGRDNIIVTFLIILDMIKEGVVEINENKEEIEFEYK	-0.04
HMPIKYTHKGYTINVSRSKMNGTTFVKVVDPKGQVIQQSQDNRIQDVNQLVTTMKQYIDTLKPS	-0.0336
HMPILRDEVYLSIKEAILTGELAPGERISIGRLLPQIGFSPTPIREALLKLEQEGFVSRLQRGGFIVSR	-0.471
HMPIQLLSEKYMDEHWDELDKDEVSLYQNMSIRFLLKHEDDINWKLYSTNPFISIDTIDFFKDKISWVNI	-1.45
HMPKAKASARNDTRTRLLTIGTEVLSQKGFASTGVEEILSVAGVPKGAFYYYFESKAAFGLAVIENYE	0.22
HMPKAMAIMSEIAGTVHIDDTKKSRHVEVTGVDDNGAPVTKSYLIPFGHRLKVMEGDVLVKGALLT	-0.0288
HMPKHHIESVIPENFAGERLDKVLAVLWGTFSRAQLTRWIRDGSLLLDGHKVKPNTKVDGSEKIVLQAEVA	0.0479
HMPKNEHETKAIGNQTGGRVFLFLNTDNINRDYNMYISKQVKFVREISQEYYGKVAVFEDLYGNLWDLIE	-0.222
HMPKNRTDYVQDVLKSLGRPAHYKEITQIINAMLPKEAQYSAKSIQVVLGSSPLFIRVGTGTYALVE	-0.79
HMPKNVEVPNVVGLSLPMAKLRLTQLGLHIVVRDSVWSETGQPNTILDQDPQPGKKIKPESTVYVKVN	≥ 0.43
HMPKRYAGPDIIAIYGSDVFFRVGSGDGLMVIPVGRSMDNIEVVSVDAPRSVELMWKDGGPFTVPV	-0.218
HMPKSKTPDDAAEEFRTAFSALDMDGKVTVKDMAEYMGVIDKTVYARLKKMGDEFTLDKGVITKKT	-0.084
HMPKTATIVIDLNYADAKEIVENLQTILAGETKDISVAPHPSANQIIASGDRWEVENISTIIKQLDR	-1.02
HMPKTLTEAAYEDIKQWILEGEITPGSKISLEDTASRLEVSMTPIREALTKLQQEGLVEYIPRAGWRASK	-0.294
HMPLAQRFGLTVAQARVLDLLAEGRSNRQIGELLGLTEGTVKIHVSAIMKAMGVSNRAEAALMANRKR	-0.29
HMPLDKDTTLDEIYRRFNMEHPADYKGHSLSMGDIVVFRQDGKQTAYYVDEGADYRQVPEFFVK	-0.173
HMPLDPFVVDALRDEIINTIKQHEPRVDLQKVQVQPIYTQNRVNISVQYKIVGLPIVEDITFVLQRP	0.135
HMPLEKGVVILDVTPSSAKVAVDGTSVETTYPLRLSAGLHQLSAEADGYDSITEYFKVETEKTTVTLDLSK	0.234

Sequence	soluble fraction (log2)
HMPLEQAELRLDLKQAILQMDRQTQELLLLRYVDGLSPGEAGKVLELSRFAVYRREKEALRKLRDYFSH	-0.834
HMPLLSEWDAALEELWAKLGDVPMDPETERMDAPFLGFPAGTPREDIWHWFDERHSKGVAHLLYG	-1.78
HMPLQYRLTVQPTPTNARVRLVNSAFTYRPGVALPPGSYIVEVSSSGYGAKRQAVQIADGDVTVPVELEKI	0.138
HMPLYKYYTSYQIEPGDTLTSIAQKYTINSDVSVQDYIDEVKKNNNLVSDKINSGSYLVVSYYSNEY	-1.24
HMPNIQLARNLKYLRLAYGLTQDDLGAFLNISRQAYSNYENLKRSPDLDSLIRLASLYHLSLDDLVSR	-1.24
HMPNTLAGIERYLGSGMVKGIGPVYASRLVSAFGTAVFDVIEQTPERLREIDGIGEKRTRKITSGWADQ	-0.242
HMPNYIDAISALLTLKGVGDRKHASTMANILNLQYNSAKQKLDGKRGITLDEVKKVFQYFNEPF	-0.76
HMPPAPGHDLTEREREVLRLLVEGLSNQEISDRLVISQSTVKNHVSSVLSKLDAANRAEAVALALKNQL	-0.547
HMPPELSDEVMEEAMSYLKNQYLNHGVKLEDYPALNKLFVDEAFRSEVIRKTQSNYKISYQSAMASLD	-0.928
HMPPENVSVRREQIAEDKKTVYNVWVTKGNKTVLYSKVVYAWGGVYFFRDLNTSISENMYKQADAGLVN	-0.0222
HMPPGQIVNEALQRAGNSTPTGTAISAQDDIKLYTSALAELATQGDTSSASVAKLREALQTAQVAFYNAV	0.0927
HMPPITIVPNDNGVPIIRSQTPEISTAVNVELKAAGINTHTIDGTSIRVPKAQAQVAQQIVSRVNTRFT	0.266
HMPPNHADLKSSGLKATLPRLKILEIFQNSQVRHLSAEDVYKLLLAENLDVGLATVYRVLTQFEQAGL	-0.511
HMPPNRDDEHLQALRDYYAANRRIPSLQRVASLLGFSSRSAAVKLMGRLADEGFIERTADDDAWITGKRFF	-0.371
HMPPNVLSEREQEVLQLAADGMSNKEMGSELYIAPTTVRDHMQSIMRKLQVNSRTAAAVAGLKLGLLD	-0.422
HMPPPTLVESAYNHLKADIISSYLKPDEKINLKDLSQRYQVSETPIKQALNRLISEGLIISVPRKGMWVH	0.065
HMPPPVERAIRKLGHDLSLARRRRRISQDSMAQRMGASVSTVRRIEKGDPRIPIHFIARAMMILGDLKAL	-0.105
HMPQFDRQAFGQRLRLLRDYREMTQQQVANFLNVDRSTYSYYENGKTEPSITVLMRMAELFSVTLDSLLNM	-1.05
HMPQIDLYPFEVRIEQDNNAAEYAVRFLDVPNIIGSGASIDEAIVEARGNLKEYLDYLIDTNRDIPLPS	-1.43
HMPQISQDDLMEAGLIVGKEAKQRRIKLGEILGIGYVNAKQLPKRLQLFQVAKSDFEQAVQQIDG	0.134
HMPQKSDLTMEEYNKLGLAGGSGSRKLREQVGIRLSVGYGNSKQFYNRLHTFGISLDELKTAVEEVKNG	0.295
HMPQNVSVPDVTNMTQAEAESKLKEKNLAVGNIIPELSTTVEKDKVTRTNPESGSNVRKNSKVDIYVSQG	0.327
HMPQPDVIEVRQGIVTGMRPDRRTGWLRDEEDAAGEPKSFSIDVITPKGRTPGKGAVVTYTLTNGKITEVK	0.143

Sequence	soluble fraction (log2)
HMPRELKVRDVSHQHAGHAGWREGGETHFEVDMKADVFAGTSRVAAHRMVNKVLANELASRVHALQLNLS	-0.308
HMPRENLAYTLIMDGIVQHKNLPRASVTEAWLKQELQKAGINDFRQVLIAGIDSKGQLYFQPKQK	-0.392
HMPRPLVAPMPGLIVRVTAVVGDSVDAGQGLVVMEAMKMENELRTTTAGVVKTVHVQPGVAVEKGALLIEF	-0.766
HMPRTEILMVDEEMEGERLDAFVAEQLDELSRSLVKTLIENGEIRVDGKQQKPSYRLKAGEEIIVEIPA	-0.438
HMPSDTNLIGKTGIAYTTLRPGGTALIDDRKVDVVADSEYIEKDKKIKVIRVEGIKVVVTAVK	0.194
HMPSGRIRWFDAKKGYGFIAGDDGKDVFLPQTALPQGVRNPRKGAKVEYSVIEGNRGQVAMGVTMV	0.0307
HMPSHALFWTLLKEVPGYDPHYKDVIKEGIVHEHSGGRTTSLSEMYTKYPREYSLMIEAMKG	-0.326
HMPSKTFYNLSQEKQQKIIDASEKEFSNNLYQDVSLNQIIKNSNISRGSFYMYFTDKEDLYFYLLNEY	≥ 0.43
HMPSLGADIRALRKSRKMTLVALADALGRSVGWLSQVERDKSHATIADLGRMAEVLDVSISSFL	-0.209
HMPSLSAILHDARVAAGLSMRQASAASGLSIGFISMLEQGKVQDISLQRLGRLVTAYDLEPLDVIEAAG	-0.848
HMPSSAYGPYKNVFLSNSELTKLKNELPTSWEHYINRLSEYMRSTGRQYQSHAATILRWAATDRNS	0.0263
HMPSSFLVKVTADALNIRSGPGVANRITGTIKDKGTYTIVDTKDDWGKLKSGVGWIHLGYTKRLD	0.0923
HMPSSQQVMRRLATVGPDKTLEELQRQHDAHLRKYGEFNDFRGERQQMRQEMERIKEAKQGTGPYAHLMG	-0.0742
HMPTAGYMTVTPDRVKEGQQFLATLRPPYVLKADGLAAGKGVLILPELEEAQRELEEMLGGFLGELSVNR	-0.303
HMPTERLSMRRIRELLRLRFEVGLSTRLIATALGISKGAVGDYLQRAQVAGLGWPLPENLNDAALERRLFP	≥ 0.43
HMPTGRVVIPLNRLTASDVARILDEAYGRDHNFEVVKPSRLAKGIIVIGPKSEIDGIKELLAH	-0.173
HMPTLLGYKHILSAWNPDTNTVFRTSYGYDGEYGSREEAMQALIKMIQEGGKATPRGIEESEVPIY	0.0029
HMPTLSKVGSQGEEVRQIQTKLKNWGYLNDRVDGIYGPKTRDAVIWFQKKNGLVADGIAGPATLKAMGIFT	≥ 0.43
HMPTMVAQINEIVQAKLPGSGLKDYTIRLVESQRDGVVVWVNGTRYLGVDEVAEPQVQALLKEAVAEWERS	-0.942
HMPTQGELAILRVLWEQGPSTVRAVWEKLNSQSGTGYTTALKLMQIMAQKGLVSRDESQKTHVYRA	-0.511
HMPTTRPEAEAHYETHQRYHDLQIDVEGREAFKVATGSLTLVQEFDEKDDYDLSIPTPRSPAILLTT	-0.208
HMPVFYVTGNRVNFRAGPSTGDRVIGSLSQGAAVEVLGPTDDAWINIRDSDGRVGYMSAQFLSQ	-0.213
